Results published in patent US7235629B2, “Functional fragment of the leptin receptor” (Vlaams Interuniversitair Instituut voor Biotechnologie VZW, priority 2000, dated 2007).

Experiments:
FLAG-tagged SOCS3 = biological target: T1, FLAG-tagged SOCS3 (Rattus norvegicus, UniProt O88583); experiment: Phosphopeptide affinity chromatography with anti-FLAG Western blot: SOCS3 binding to biotinylated leptin receptor peptides; conditions: lysates of about 3×10^7 HEK293T cells transfected with pMET7-fSOCS3; 5 nmoles biotinylated peptide on streptavidin-agarose; two hours at 4° C.
T1 construct: expressed in transfected cells; host or cells: HEK293T cells (transient transfection; cleared lysate used)
T1 sequence (O88583 1-225): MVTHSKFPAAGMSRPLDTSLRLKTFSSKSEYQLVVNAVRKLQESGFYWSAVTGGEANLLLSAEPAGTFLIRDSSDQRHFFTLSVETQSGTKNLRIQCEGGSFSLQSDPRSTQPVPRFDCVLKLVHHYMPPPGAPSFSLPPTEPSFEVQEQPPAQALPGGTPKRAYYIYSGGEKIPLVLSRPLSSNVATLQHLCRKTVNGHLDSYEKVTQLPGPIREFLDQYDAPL
Text: Monoclonal anti-FLAG antibody M2 was obtained from Sigma. Mouse recombinant leptin was purchased from R&D Systems. Peptides were synthesized using standard Fmoc-amino-acid solid phase chemistry on an Applied Biosystems Model 431A peptide synthesizer. Biotin was manually esterified following similar procedures as on the synthesizer and added to the reaction mixture. Incorporation of phosphotyrosine was realized by using a protected Fmoc-tyrosine-phosphobenzylester (Novabiochem). After purification, the mass of the peptides was confirmed by mass spectrometry. Sequences of the peptides were biotin-QRQPSVK(p)Y985ATLVSNDK (SEQ ID NO:7) and biotin-NHREKSVC(p)Y1077 LGVTSVNR (SEQ ID NO:8).
Approximately 10^6 HEK293T cells were lysed in 150 μl 2× loading buffer. After sonication, 30 μl was loaded on a 10% polyacrylamide gel. […] Blotting efficiency was checked using PonceauS staining (Sigma).
For phosphopeptide affinity chromatography, approximately 3×10^7 HEK293T cells transiently transfected as indicated were lysed in lysis buffer (20 mM Hepes pH 7; 1 mM MgCl2; 10 mM KCl; 0.5 mM DTT; 150 mM NaCl; 0.5% NP40; 1 mM NaVO4; 5 mM NaF; 20% glycerol; Complete™ Protease Inhibitor Cocktail (Roche)). Precipitated material was cleared by 5 minutes centrifugation at 10,000 g. To eliminate a-specific interactions, supernatants were brought on a pre-column containing Sepharose 4B beads prior to phosphopeptide affinity chromatography on streptavidin-coupled agarose beads (Sigma). Peptide concentrations were determined by a colorimetric assay using alkaline hydrolysis and a ninhydrine reagent. Fifty μl of streptavidin-agarose slurry was incubated with 5 nmoles of peptide for each reaction. Cleared lysate was incubated for two hours at 4° C. under slow stirring. […]
The interaction sites of SOCS3 with the leptin receptor were confirmed using a biochemical approach. FLAG-tagged SOCS3 was expressed upon transient transfection of pMET7-fSOCS3 in HEK293T cells and was analyzed for binding to (phospho)-tyrosine-containing peptides matching the two motifs within the leptin receptor. […]

leptin receptor [1] = experiment: Leptin-induced pGL3-rPAP1-luci reporter induction in PC12 LR8 cells transiently expressing SOCS3; assay type: cell-based, mouse; conditions: leptin 24 hours
Description: FIG. 1: Expression of SOCS3 leads to inhibition of leptin-induced rPAP1 expression in PC12 cells. PC12 LR8 cells were co-transfected with a plasmid encoding SOCS3 (pMET7fSOCS3) or empty vector (mock, pMET7), and a pGL3-rPAP11 reporter construct. Forty-eight hours after transfection, the cells were stimulated with leptin or left untreated. Luciferase activity was measured in triplicate after 24 hours. CPS: absolute luminescence counts per second; NS: nonstimulated negative control.
Culture conditions and transient transfection procedures for PC12 and generation of the PC12LR8 cell line were as previously described. (Eyckerman et al., 1999; Waelput et al., 2000.)
(§1) Luciferase assays, binding assays using Leptin-SEAP and Northern blot hybridizations with SOCS3 and actin probes were described previously by Eyckerman et al. (1999). β-galactosidase activity was measured using the Galacto-Star™ chemiluminescent detection kit (Tropix) and a Topcount Chemiluminescence Counter (Packard).
Through representational difference analysis, a PCR-based differential expression screening in PC12 cells expressing the mouse leptin receptor, several leptin-induced transcripts (including SOCS3) were identified. In order to check the inhibitory role of SOCS3 on leptin signaling in the cell systems used, an expression vector containing rat SOCS3 was generated. […]

[2] = biological target: murine leptin receptor, long isoform, wild type (mouse), P48356; experiment: cell-based or functional assay
murine leptin receptor, long isoform, wild type (mouse), P48356, sequence (P48356 22-1162): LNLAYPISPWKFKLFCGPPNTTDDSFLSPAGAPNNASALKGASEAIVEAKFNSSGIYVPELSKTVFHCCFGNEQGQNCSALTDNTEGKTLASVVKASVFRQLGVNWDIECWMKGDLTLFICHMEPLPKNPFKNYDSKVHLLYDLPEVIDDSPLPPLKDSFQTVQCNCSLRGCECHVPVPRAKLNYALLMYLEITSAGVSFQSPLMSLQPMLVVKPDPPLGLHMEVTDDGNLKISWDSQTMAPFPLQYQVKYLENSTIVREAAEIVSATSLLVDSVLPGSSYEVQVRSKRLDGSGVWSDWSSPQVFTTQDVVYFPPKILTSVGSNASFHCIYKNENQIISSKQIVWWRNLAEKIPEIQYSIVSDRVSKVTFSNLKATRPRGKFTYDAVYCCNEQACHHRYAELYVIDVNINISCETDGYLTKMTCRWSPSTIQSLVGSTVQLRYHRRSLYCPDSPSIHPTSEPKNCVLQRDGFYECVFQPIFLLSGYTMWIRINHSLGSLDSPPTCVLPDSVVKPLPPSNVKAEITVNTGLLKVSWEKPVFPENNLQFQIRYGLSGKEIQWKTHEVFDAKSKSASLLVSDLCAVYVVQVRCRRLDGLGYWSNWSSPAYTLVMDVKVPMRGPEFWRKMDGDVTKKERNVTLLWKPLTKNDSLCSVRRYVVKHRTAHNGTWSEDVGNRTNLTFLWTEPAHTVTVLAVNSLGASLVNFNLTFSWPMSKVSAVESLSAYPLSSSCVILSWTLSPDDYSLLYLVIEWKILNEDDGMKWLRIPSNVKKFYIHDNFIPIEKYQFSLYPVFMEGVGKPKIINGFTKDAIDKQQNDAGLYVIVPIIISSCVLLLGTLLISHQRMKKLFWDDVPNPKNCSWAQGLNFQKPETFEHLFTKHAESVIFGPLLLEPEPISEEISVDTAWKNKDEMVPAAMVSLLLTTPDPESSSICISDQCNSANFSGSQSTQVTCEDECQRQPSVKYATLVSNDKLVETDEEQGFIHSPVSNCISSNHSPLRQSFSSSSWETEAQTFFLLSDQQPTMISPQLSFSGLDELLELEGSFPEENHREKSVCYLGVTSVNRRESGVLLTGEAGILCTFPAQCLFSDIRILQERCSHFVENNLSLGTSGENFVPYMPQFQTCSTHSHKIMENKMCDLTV

[3] = biological target: murine leptin receptor, long isoform, Y985F (mouse), P48356; experiment: cell-based or functional assay
murine leptin receptor, long isoform, Y985F (mouse), P48356, sequence (P48356 22-1162 Y985F): as the sequence (P48356 22-1162) above, with Y964F counted along it

[4] = biological target: murine leptin receptor, long isoform, Y1077F (mouse), P48356; experiment: cell-based or functional assay
murine leptin receptor, long isoform, Y1077F (mouse), P48356, sequence (P48356 22-1162 Y1077F): as the sequence (P48356 22-1162) above, with Y1056F counted along it

leptin receptor [5] = experiment: rPAP1-luciferase reporter assay of leptin signalling in HEK293T cells co-transfected with leptin receptor variants and SOCS3; assay type: cell-based, murine; conditions: 24 hours leptin
Description: HEK293T cells were maintained in a 10% CO2 humidified atmosphere at 37° C. and grown using DMEM with 4500 mg/l glucose, 10% fetal bovine serum and 50 μg/ml gentamycin (all from LifeTechnologies). Typically, 4×10^5 cells were seeded the day before transfection in a 6-well plate and transfected overnight with approximately 2 μg plasmid DNA using a standard calcium phosphate precipitation procedure. One day after transfection, cells were re-suspended with Cell Dissociation Agent (LifeTechnologies), seeded in a black well plate (Costar) and stimulated overnight with […] leptin or left unstimulated.
as §1
Based on its functional similarity with the gp130 chain, the leptin receptor was tested for interaction with SOCS3. Leptin receptor variants containing Y to F mutations at positions Y985, Y1077, or at both sites, were tested in a functional assay based on rPAP1-induction. Signalling via the leptin receptor variants was analyzed upon transient transfection in HEK293T cells with the pXP2d2-rPAP11uci and the FLAG-tagged pMET7-fSOCS3 expression construct. Luciferase activity data were normalized by co-transfection with pUT651 and a β-galactosidase activity assay.
Expression of leptin receptor variants and SOCS3 were confirmed, respectively, by a binding assay using a leptin-SEAP fusion protein and Western blot analysis using an anti-FLAG antibody (FIG. 3). LR expression levels were measured on transfected cells by incubation for 90 minutes with Leptin-SEAP fusion protein with or without excess leptin (100×). The transfected cells were stimulated for 24 hours with leptin or left untreated. Luciferase measurements were performed in triplicate and were normalized by co-transfection with the pUT651 β-galactosidase construct and a β-galactosidase activity assay. The results indicated a strong inhibitory activity of SOCS3 (80-90% inhibition) when the wild-type or the mutant Y1077F leptin receptor was expressed, and a moderate inhibition (30-50% inhibition) upon expression of a Y985F receptor variant.

## biotin-QRQPSVK(p)Y985ATLVSNDK (SEQ ID NO:7) [phosphorylated Y985 peptide]
FLAG-tagged SOCS3
  binding of SOCS3 to peptide (Western blot, anti-FLAG antibody): clear and specific binding

## biotin-NHREKSVC(p)Y1077 LGVTSVNR (SEQ ID NO:8) [phosphorylated Y1077 peptide]
FLAG-tagged SOCS3
  binding of SOCS3 to peptide (Western blot, anti-FLAG antibody): binds specifically to the phosphorylated Y1077 peptide, but apparently with a much lower affinity

## biotin-QRQPSVK(p)Y985ATLVSNDK (SEQ ID NO:7) [non-phosphorylated peptide]
FLAG-tagged SOCS3
  binding of SOCS3 to peptide (Western blot, anti-FLAG antibody): did not bind any SOCS3 protein

B1: FLAG-tagged rat SOCS3 (expressed from pMET7fSOCS3), O88583 1-225 (protein)
chain: MDYKDDDDKMVTHSKFPAAGMSRPLDTSLRLKTFSSKSEYQLVVNAVRKLQESGFYWSAVTGGEANLLLSAEPAGTFLIRDSSDQRHFFTLSVETQSGTKNLRIQCEGGSFSLQSDPRSTQPVPRFDCVLKLVHHYMPPPGAPSFSLPPTEPSFEVQEQPPAQALPGGTPKRAYYIYSGGEKIPLVLSRPLSSNVATLQHLCRKTVNGHLDSYEKVTQLPGPIREFLDQYDAPL
Leptin receptor [1]
  inhibition of leptin-mediated reporter induction: marked inhibition
[2]
  inhibition of leptin-induced rPAP1 luciferase reporter: 80 to 90 % inhibition
[3]
  inhibition of leptin-induced rPAP1 luciferase reporter: 30 to 50 % inhibition
[4]
  inhibition of leptin-induced rPAP1 luciferase reporter: 80 to 90 % inhibition
Leptin receptor [5]; Y985F receptor variant
  inhibition of leptin signalling (rPAP1 luciferase): 30-50 % inhibition
Leptin receptor [5]; double Y985/1077F mutant
  inhibition of leptin signalling (rPAP1 luciferase): no inhibition was observed
Leptin receptor [5]; mutant Y1077F leptin receptor
  inhibition of leptin signalling (rPAP1 luciferase): 80-90 % inhibition
Leptin receptor [5]; wild-type leptin receptor
  inhibition of leptin signalling (rPAP1 luciferase): 80-90 % inhibition
